Measured values reported in the supplement of paper PMC6757056.
± gives the standard deviation of the averaged measurements.

B1: library; a variant is named by its letters at N, in order (parent)
chain: GCUGUCACCGGUGUAUUACCCUAGUGGUCGACCGGUCUGAUGAGUCUNNNNNNAGACGAAACAGC

Legend:
[1] = variants of: B1; assay: FACS-Seq fitted mean relative fluorescence mCherry/BFP without ligand (log10 relative fluorescence); ligand: hypoxanthine (xanthine aptamer); higher = higher reporter protein expression; settings: HEK293T, ligand present: no
Summary of the method: (§1)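 Genomic DNA from 6 mCherry/BFP sort bins was PCR-amplified, barcoded and sequenced on MiSeq. The sorted cells were enriched HEK293T libraries, lentivirally transduced with a ribozyme-switch mCherry reporter and an EF1α-BFP marker, incubated with or without ligand for 48 h. Fluorescence derives from a normal fit to the bin counts. The fit was on log10(mCherry/BFP), and means were scaled to five spiked-in control ribozymes.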

[2] = variants of: B1; assay: normalized RNA/DNA level with ligand (relative to sTRSVctl = 100) (log10 (% of sTRSVctl)); ligand: hypoxanthine (xanthine aptamer); higher = less ribozyme self-cleavage, higher mRNA level; settings: ligand concentration (+) RNA-Seq: 5 mM, HEK293T, reporter: mCherry (pCS4076), ligand present: yes
Summary of the method: (§2)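 Total RNA, extracted with EDTA 72 h after HEK293T cells were transfected with 4 µg per 6-well well of reporter-linked ribozyme switch library plasmids, was reverse-transcribed, amplified, barcoded and sequenced. Ligand, if used, was added 1 h before transfection. RNA level was derived from RNA reads divided by DNA reads and normalized to a spiked-in non-cleaving sequence or to the top sequences. This was multiplied by 100 and log10-transformed, with the top set of 25 sequences and a ≥100 DNA read minimum.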

[3] = variants of: B1; assay: normalized RNA/DNA level without ligand (relative to sTRSVctl = 100) (log10 (% of sTRSVctl)); ligand: hypoxanthine (xanthine aptamer); higher = less ribozyme self-cleavage, higher mRNA level; settings: HEK293T, reporter: mCherry (pCS4076), ligand present: no
Summary of the method: as §2

[4] = variants of: B1; assay: FACS-Seq fitted mean relative fluorescence mCherry/BFP with ligand (log10 relative fluorescence); ligand: hypoxanthine (xanthine aptamer); ligand concentration (+) FACS-Seq: 5 mM; higher = higher reporter protein expression; settings: HEK293T, ligand present: yes
Summary of the method: as §1

| Variant | FACS-Seq fitted mean (log10) [1] | normalized RNA/DNA level with ligand (log10) [2] | normalized RNA/DNA level without ligand (log10) [3] | FACS-Seq fitted mean (log10) [4] |
| --- | --- | --- | --- | --- |
| AUUGAU | 0.686 ± 0.037 | 1.92 ± 0.07 | 1.73 ± 0.074 | 0.657 ± 0.014 |
| AUUGAG | 0.25 ± 0.005 | 1.82 ± 0.062 | 1.37 ± 0.029 | 0.476 ± 0.0067 |
| AUUGAC | 0.697 ± 0.08 | 1.914 ± 0.01 | 1.816 ± 0.0025 | 0.672 ± 0.11 |
| UAACUC | – | 2.009 ± 0.013 | 1.97 ± 0.04 | – |
| AUUCUC | 0.8249 ± 0.0011 | 2.01 ± 0.033 | 1.96 ± 0.044 | 0.724 ± 0.063 |
| UUUAUU | 0.761 ± 0.032 | 1.9334 ± 0.00045 | 1.86 ± 0.047 | 0.799 ± 0.067 |
| UUUAUA | -0.64 ± 0.014 | 1.93 ± 0.024 | 1.849 ± 0.0039 | -0.329 ± 0.11 |
| CUUGAA | 0.0914 ± 0.0068 | 1.95 ± 0.041 | 1.706 ± 0.015 | 0.182 ± 0.0048 |
| CUUGAU | -0.553 ± 0.022 | 1.94 ± 0.031 | 1.74 ± 0.011 | -0.303 ± 0.012 |
| CUUCGA | -0.0248 ± 0.11 | 2.01 ± 0.04 | 1.876 ± 0.012 | 0.346 ± 0.059 |
| GUUUAA | 0.00874 ± 0.0085 | 1.917 ± 0.0057 | 1.83 ± 0.03 | 0.204 ± 0.078 |
| GUUUAG | 0.256 ± 0.013 | 1.81 ± 0.023 | 1.464 ± 0.013 | 0.65 ± 0.013 |
| AUUCAU | 0.124 ± 0.035 | 1.93 ± 0.049 | 1.8 ± 0.064 | 0.262 ± 0.046 |
| GUGGUA | 0.478 ± 0.079 | 1.95 ± 0.026 | 1.759 ± 0.016 | 0.585 ± 0.082 |
| GUGGUG | 0.0578 ± 0.012 | 1.83 ± 0.047 | 1.33 ± 0.043 | 0.546 ± 0.02 |
| CUUGCA | 0.834 ± 0.021 | 2.01 ± 0.023 | 1.87 ± 0.041 | 0.882 ± 0.079 |
| CUUGCU | 0.359 ± 0.037 | 2 ± 0.018 | 1.94 ± 0.097 | 0.458 ± 0.056 |
| AUGUAU | -0.142 ± 0.082 | 1.925 ± 0.0046 | 1.73 ± 0.021 | 0.156 ± 0.0021 |
| AUGUAG | -0.0834 ± 0.023 | 1.768 ± 0.0076 | 1.27 ± 0.1 | 0.176 ± 0.087 |
| AUGUAC | 0.103 ± 0.13 | 1.893 ± 0.017 | 1.7 ± 0.026 | 0.149 ± 0.054 |
| AUGUAA | 0.323 ± 0.0041 | 1.93 ± 0.036 | 1.68 ± 0.0086 | 0.279 ± 0.019 |
| GUUUGG | 0.231 ± 0.049 | 1.92 ± 0.03 | 1.57 ± 0.06 | 0.62263 ± 0.00024 |
| CUUCAC | 0.798 ± 0.0035 | 1.98 ± 0.022 | 1.89 ± 0.038 | 0.7261 ± 0.0054 |
| CUGGGG | 0.345 ± 0.011 | 1.86 ± 0.05 | 1.479 ± 0.0059 | 0.484 ± 0.061 |
| CAACUC | – | 1.97 ± 0.028 | 1.96 ± 0.032 | – |
| AUUCGG | 0.175 ± 0.028 | 1.87 ± 0.021 | 1.46 ± 0.024 | 0.625 ± 0.014 |
| GUGUCG | 0.585 ± 0.017 | 1.86 ± 0.034 | 1.604 ± 0.0026 | 0.628 ± 0.037 |

| Variant | FACS-Seq fitted mean (log10) [1] | normalized RNA/DNA level with ligand (log10) [2] | normalized RNA/DNA level without ligand (log10) [3] | FACS-Seq fitted mean (log10) [4] |
| --- | --- | --- | --- | --- |
| GAAAUU | – | 1.95 ± 0.046 | 1.87 ± 0.039 | – |
| GAAAUC | – | 1.97 ± 0.022 | 1.88 ± 0.078 | – |
| AAAAGC | – | 1.9 ± 0.027 | 1.77 ± 0.042 | – |
| AUGUCU | 0.305 ± 0.037 | 1.957 ± 0.019 | 1.85 ± 0.046 | 0.0818 ± 0.041 |
| CUUGGA | 0.708 ± 0.039 | 1.95 ± 0.032 | 1.85 ± 0.02 | 0.705 ± 0.086 |
| GAACUC | – | 1.9377 ± 0.00012 | 1.9 ± 0.01 | – |
| UAACCU | – | 1.983 ± 0.011 | 1.91 ± 0.04 | – |
| UAACCA | – | 1.941 ± 0.018 | 1.89 ± 0.042 | – |
| GUGUAU | 0.314 ± 0.018 | 1.91 ± 0.056 | 1.737 ± 0.017 | 0.33 ± 0.021 |
| GUGUAG | 0.19 ± 0.04 | 1.76 ± 0.022 | 1.17 ± 0.065 | 0.6252 ± 0.0039 |
| GUGUAA | 0.291 ± 0.061 | 1.85 ± 0.024 | 1.67 ± 0.049 | 0.495 ± 0.043 |
| AAAAAC | – | 1.894 ± 0.015 | 1.8 ± 0.021 | – |
| AUUUAA | 0.629 ± 0.027 | 1.901 ± 0.019 | 1.81 ± 0.051 | 0.649 ± 0.015 |
| CUUUCA | 0.608 ± 0.077 | 1.918 ± 0.0052 | 1.89 ± 0.041 | 0.565 ± 0.017 |
| GUUGCA | 0.818 ± 0.056 | 1.918 ± 0.017 | 1.81 ± 0.021 | 0.698 ± 0.011 |
| GUUCGU | 0.476 ± 0.02 | 1.98 ± 0.087 | 1.887 ± 0.01 | 0.538 ± 0.014 |
| AUUAAU | 0.51 ± 0.075 | 1.89 ± 0.023 | 1.774 ± 0.0011 | 0.566 ± 0.024 |
| AUUAAG | 0.351 ± 0.019 | 1.86 ± 0.028 | 1.48 ± 0.056 | 0.65 ± 0.069 |
| AUUAAA | 0.84 ± 0.0057 | 1.89 ± 0.045 | 1.78 ± 0.021 | 0.732 ± 0.092 |
| UUUAAC | 0.697 ± 0.045 | 2 ± 0.04 | 1.86 ± 0.021 | 0.716 ± 0.07 |
| UUUAAU | 0.485 ± 0.013 | 1.918 ± 0.01 | 1.856 ± 0.0057 | 0.421 ± 0.053 |
| CUUUUA | 0.647 ± 0.044 | 1.92 ± 0.051 | 1.77 ± 0.043 | 0.318 ± 0.12 |
| AUUACA | 0.157 ± 0.076 | 1.91 ± 0.033 | 1.776 ± 0.0047 | 0.407 ± 0.0063 |
| AUUACG | 0.368 ± 0.015 | 1.84 ± 0.066 | 1.397 ± 0.00039 | 0.626 ± 0.068 |
| CUUAUA | 0.669 ± 0.043 | 1.92 ± 0.037 | 1.792 ± 0.014 | 0.696 ± 0.063 |
| CAACGG | – | 1.85 ± 0.08 | 1.42 ± 0.043 | – |
| CAACGU | – | 1.963 ± 0.0077 | 1.89 ± 0.025 | – |

| Variant | FACS-Seq fitted mean (log10) [1] | normalized RNA/DNA level with ligand (log10) [2] | normalized RNA/DNA level without ligand (log10) [3] | FACS-Seq fitted mean (log10) [4] |
| --- | --- | --- | --- | --- |
| UUUGUG | 0.449 ± 0.0072 | 1.954 ± 0.015 | 1.76 ± 0.031 | 0.537 ± 0.024 |
| UAAACA | – | 1.913 ± 0.017 | 1.875 ± 0.015 | – |
| UAAACC | – | 1.955 ± 0.016 | 1.91 ± 0.0052 | – |
| UAAACU | – | 1.94 ± 0.039 | 1.87 ± 0.034 | – |
| UAAACG | – | 1.9 ± 0.087 | 1.71 ± 0.036 | – |
| CAAAAU | – | 1.88 ± 0.035 | 1.763 ± 0.0036 | – |
| CAAAGG | – | 1.751 ± 0.005 | 1.26 ± 0.062 | – |
| CAAAGC | – | 1.956 ± 0.01 | 1.77 ± 0.021 | – |
| CAAAGA | – | 1.93 ± 0.03 | 1.768 ± 0.0019 | – |
| CUUUAG | 0.52 ± 0.017 | 2.02 ± 0.036 | 1.808 ± 0.017 | 0.386 ± 0.085 |
| CUUUAU | 0.0718 ± 0.034 | 1.88 ± 0.098 | 1.78 ± 0.028 | 0.344 ± 0.07 |
| AUUUUG | 0.224 ± 0.041 | 1.933 ± 0.0027 | 1.59 ± 0.083 | 0.466 ± 0.012 |
| AUUUUU | 0.433 ± 0.019 | 1.93 ± 0.054 | 1.88 ± 0.032 | 0.378 ± 0.044 |
| AAAAUA | – | 1.909 ± 0.018 | 1.777 ± 0.015 | – |
| AAAAUC | – | 1.94 ± 0.023 | 1.92 ± 0.041 | – |
| AUGUUU | 0.564 ± 0.028 | 1.95 ± 0.055 | 1.85 ± 0.03 | 0.43 ± 0.049 |
| AUGUUG | 0.146 ± 0.039 | 1.85 ± 0.024 | 1.44 ± 0.075 | 0.386 ± 0.071 |
| UAAAGA | – | 1.891 ± 0.0053 | 1.57 ± 0.021 | – |
| UUUUCC | -0.155 ± 0.032 | 1.94 ± 0.03 | 1.935 ± 0.013 | 0.362 ± 0.077 |
| AUUAGC | 0.269 ± 0.031 | 1.92 ± 0.037 | 1.77 ± 0.029 | 0.487 ± 0.023 |
| AUUAGA | 0.629 ± 0.042 | 1.895 ± 0.013 | 1.71 ± 0.028 | 0.69 ± 0.04 |
| AUUAGG | 0.0666 ± 0.043 | 1.81 ± 0.045 | 1.31 ± 0.021 | 0.477 ± 0.051 |
| CUGUAU | 0.503 ± 0.018 | 1.899 ± 0.013 | 1.82 ± 0.043 | 0.384 ± 0.08 |
| CUGUUA | 0.263 ± 0.085 | 1.95 ± 0.057 | 1.66 ± 0.027 | 0.493 ± 0.053 |
| GUUAUG | 0.223 ± 0.011 | 1.87 ± 0.039 | 1.46 ± 0.015 | 0.509 ± 0.01 |
| CUUAAC | 0.554 ± 0.03 | 1.89 ± 0.059 | 1.82 ± 0.036 | 0.637 ± 0.05 |
